Biological target: the molecule itself
Experiment: SEC

B1: Cowpea chlorotic mottle virus (CCMV) coat protein (natural protein)
chain: MSTVGTGKLTRAQRRAAARKNKRNTRVVQPVIVEPIASGQGKAIKAWTGYSVSKWTASCAAAEAKVTSAITISLPNELSSERNKQLKVGRVLLWLGLLPSVSGTVKSCVTETQTTAAASFQVALAVADNSKDVVAAMYPEAFKGITLEQLTADLTIYLYSSAALTEGDVIVHLEVEHVRPTFDDSFTPVY
B1: binds.
